The values below come from patent US20170304457A1 (MIT, published 2017).

Some targets named below: P-cNsp1-P; P-1NLP-P; P-2NLP-P.
Holding throughout (test): cell-based or functional assay

Sequence of P-2NLP-P (chain, as listed by the source): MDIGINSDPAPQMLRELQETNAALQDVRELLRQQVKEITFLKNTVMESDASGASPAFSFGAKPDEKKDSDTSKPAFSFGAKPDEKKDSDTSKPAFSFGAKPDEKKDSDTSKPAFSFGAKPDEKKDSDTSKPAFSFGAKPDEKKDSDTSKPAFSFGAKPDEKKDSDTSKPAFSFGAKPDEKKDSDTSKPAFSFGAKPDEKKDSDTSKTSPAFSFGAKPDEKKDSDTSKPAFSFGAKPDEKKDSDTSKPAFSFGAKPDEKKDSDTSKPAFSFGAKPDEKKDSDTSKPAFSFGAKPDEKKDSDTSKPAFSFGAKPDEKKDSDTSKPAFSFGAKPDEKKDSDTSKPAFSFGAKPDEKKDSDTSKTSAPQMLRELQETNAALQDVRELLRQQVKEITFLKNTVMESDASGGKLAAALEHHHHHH
Sequence of P-1NLP-P (chain, as listed by the source): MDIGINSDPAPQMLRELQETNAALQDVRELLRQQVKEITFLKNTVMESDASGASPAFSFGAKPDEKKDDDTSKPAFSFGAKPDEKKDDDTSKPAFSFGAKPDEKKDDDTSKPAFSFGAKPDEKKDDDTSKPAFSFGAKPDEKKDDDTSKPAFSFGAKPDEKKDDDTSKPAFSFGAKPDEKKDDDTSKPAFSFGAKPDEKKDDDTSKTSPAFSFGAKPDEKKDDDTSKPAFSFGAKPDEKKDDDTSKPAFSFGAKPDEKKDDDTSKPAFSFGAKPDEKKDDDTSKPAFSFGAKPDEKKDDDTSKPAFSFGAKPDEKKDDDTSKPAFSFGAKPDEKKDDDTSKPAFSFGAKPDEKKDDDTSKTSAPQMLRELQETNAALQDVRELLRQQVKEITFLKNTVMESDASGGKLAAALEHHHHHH
Sequence of P-cNsp1-P (chain, as listed by the source): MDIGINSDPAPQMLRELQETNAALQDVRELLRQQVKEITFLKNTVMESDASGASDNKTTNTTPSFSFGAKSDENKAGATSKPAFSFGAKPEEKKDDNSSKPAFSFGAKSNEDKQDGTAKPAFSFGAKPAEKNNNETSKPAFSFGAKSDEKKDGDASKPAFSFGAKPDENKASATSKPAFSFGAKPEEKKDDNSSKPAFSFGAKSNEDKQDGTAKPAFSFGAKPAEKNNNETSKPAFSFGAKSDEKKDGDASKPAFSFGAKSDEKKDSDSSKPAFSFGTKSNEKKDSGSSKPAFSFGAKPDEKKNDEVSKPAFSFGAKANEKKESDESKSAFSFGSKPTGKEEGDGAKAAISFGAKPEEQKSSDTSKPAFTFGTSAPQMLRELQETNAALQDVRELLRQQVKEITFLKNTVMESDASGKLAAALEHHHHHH

B1: importin β (receptor, UniProt Q06142 1-861, looked up, not shown: small tags and cut ends)
chain: MSTAEFAQLLENSILSPDQNIRLTSETQLKKLSNDNFLQFAGLSSQVLIDENTKLEGRILAALTLKNELVSKDSVKTQQFAQRWITQVSPEAKNQIKTNALTALVSIEPRIANAAAQLIAAIADIELPHGAWPELMKIMVDNTGAEQPENVKRASLLALGYMCESADPQSQALVSSSNNILIAIVQGAQSTETSKAVRLAALNALADSLIFIKNNMEREGERNYLMQVVCEATQAEDIEVQAAAFGCLCKIMSLYYTFMKPYMEQALYALTIATMKSPNDKVASMTVEFWSTICEEEIDIAYELAQFPQSPLQSYNFALSSIKDVVPNLLNLLTRQNEDPEDDDWNVSMSAGACLQLFAQNCGNHILEPVLEFVEQNITADNWRNREAAVMAFGSIMDGPDKVQRTYYVHQALPSILNLMNDQSLQVKETTAWCIGRIADSVAESIDPQQHLPGVVQACLIGLQDHPKVATNCSWTIINLVEQLAEATPSPIYNFYPALVDGLIGAANRIDNEFNARASAFSALTTMVEYATDTVAETSASISTFVMDKLGQTMSVDENQLTLEDAQSLQELQSNILTVLAAVIRKSPSSVEPVADMLMGLFFRLLEKKDSAFIEDDVFYAISALAASLGKGFEKYLETFSPYLLKALNQVDSPVSITAVGFIADISNSLEEDFRRYSDAMMNVLAQMISNPNARRELKPAVLSVFGDIASNIGADFIPYLNDIMALCVAAQNTKPENGTLEALDYQIKVLEAVLDAYVGIVAGLHDKPEALFPYVGTIFQFIAQVAEDPQLYSEDATSRAAVGLIGDIAAMFPDGSIKQFYGQDWVIDYIKRTRSGQLFSQATKDTARWAREQQKRQLSL
For the molecule B1, the “absorption of cargo-importin β complexes by the hydrogel relative to inert molecules in an hour (capillary transport assay, 20 w/v % gel)” value with P-cNsp1-P is 3.9 times more than inert molecules. In the experiment with P-1NLP-P, the “absorption of cargo-importin β complexes by the hydrogel relative to inert molecules in an hour (capillary transport assay, 20 w/v % gel)” value was 2.3 times more than inert molecules and the “accumulation of cargo-carrier complexes relative to MBP-mCherry (without the IBB domain) over an hour, 20 w/v % gel” value is 3 times more than MBP-mCherry. In the experiment with P-2NLP-P, the “absorption of cargo-importin β complexes by the hydrogel relative to inert molecules in an hour (capillary transport assay, 20 w/v % gel)” value is 3.8 times more than inert molecules; the “accumulated green fluorescence intensity compared to the intensity without importin β, relative to the P-1NLP-P gel” value is ~2 fold of P-1NLP-P gel; the “accumulation of cargo-carrier complexes in the gel relative to MBP-mCherry (no IBB domain) over three hours, 10 w/v % gel” value was 5.2 times more than MBP-mCherry; the “accumulation of cargo-carrier complexes in the gel relative to MBP-mCherry (no IBB domain) over three hours, 20 w/v % gel” value is 10.2 times more than MBP-mCherry. The “accumulation of cargo-carrier complexes relative to MBP-mCherry (without the IBB domain) over an hour, 20 w/v % gel” value with P-2NLP-P is 5.3 times more than MBP-mCherry.
